The DeepSol protein solubility set

Experiment: soluble on expression in E. coli; label from the status in PepcDB or PDB records
For “VEKVFVVGHKNLDMDALGATVGMAHFASQIVRKSYAVYDDMAMNTDIERAVERLKEDGQSPLITLSEAEELVNQHSLLIMVDHSKINLTLSQDFYDRFNEVIVVDHHRRDDDFPENAVLTFIESGASSACELVTELLQFQGAPERLSKIQASILMAGIMLDTKNFSTRVTSRTFDVASYLRSLGSDSGEIQMISATDF”, the “soluble on expression in E. coli” value was “not soluble”. For “MEGQTHDAQNNVPEHDNPLMNVKNPSSNLFSKKDAQCLSVLCNGKWLQIVRSSPKVSCEASTCPSHILTKVGENYVAESEKMHKKVISFSSKTFSQGTLQFTMRANGTPHFVFKLENQKDVYVASLSSNVQDQNSYMIHLQRGESSASSSHLVGRINVSTLFSEKVLEREFVLFSSNGENLKIPRTRKNRGLSKKVVHAVKNERRTARLSRTSFIPDLGSWDEQFQAQNYDCLLKNKLPTNLETLAVVVKQETIEDEIGGWGLKFLKRSPMFQRSNDASETETSTSSISMNVVIPSGIHGGPEDGPSSLIERWKSQGNCDCGGWDLCCSLTLLKGQPRKDQYFELFIEVKLSFISSNTSIL”, the “soluble on expression in E. coli” value was “not soluble”. For “MAHHHHHHMMGHLTLPQLCLNVQHGKYSKKTQRPPTLSQRCVTTLISSRISRKLSPADCPTYTSTLLSAEGSTTENLKYNHRGPTTTFSATASNPIIFPN”, the “soluble on expression in E. coli” value was “not soluble”. For “VINARLGKKDEINVCKLKISAWDEEEAVCIMSISEERMFILKMLEEGKITSEEAARLLEAIDPDKGTADSGSGFKAQQRKTNFADEVSKVRDKLNEWKKEFKKNYNQKDFERAVDEFSSKVEKLGKNLAYTTIGVADKLVDFISSFVETNSFNVFGKYKATNRVFEVPDVNEDMELNIEAINGHILVKKHMENKVIIRTTVKSPADNADEILDFSREENKVTLKCNKIGNISVSHEIFLPSVKVKNISLVTKNGKVYVEDSISENFEAVTSNSNVDLMGVNGDKINVSNKNGRINFGYIIGKDINIDAVNSVIEIRQIKTTNINASTRNGRIFIENVHNHNDDPNINMNLKTSSADIKVNMNDMEKRGYKIKAQTTHAEINLLIPEMTYRNISKQMSSNFVEADSDGYDDYINKVNIVAETTNGNIEIVK”, the “soluble on expression in E. coli” value was “not soluble”. In the case of “MKKVNLAVVGATGMVGRTFIKVLEERNLPIDNIYFFSSSRSAGSTVTFNNKEYVVEELTETSFDRGIDIALFSAGASVSEKFAPIAASKGCVVVDNSSCWRMNEKVPLVVPEVNPQDISCHQGIIANPNCSTIQAVVVLKPLHDKYKIKRIVYSTYQAVSGAGHNGYMDLENGLKGEPPKKFPHPIAGNCLPHIDSFLPNGYTKEEMKMVNETRKILGDYSIRITATTVRVPVFNGHSESINVEFEKQFDLEELKEVLRNAPGVVVQDDVANNVYPMPIYASGRDETFVGRIRRDESVESGVNLWVVADNIRKGAATNAVQIAEELIKMWNK”, the “soluble on expression in E. coli” value is reported as “soluble”. In the case of “MGEEFEKLMKKFENVNKDGEIVEDEDEWEEFFKQEEYVKIPKDRIAVLIGKKGQTKKEIEKRTKTKITIDSETGEVWITSTKETEDPLAVWKARDIVLAIGRGFSPERAFRLLNEGEYLEIINLTDIIIGNEKNALPRVRGRIIGRKGRTRQIIEEMSGASVSVYGKTVAIIGNPIQIEIAKTAIEKLARGSPHGSVYRYLERRKKDLELEGAMYYENL”, the “soluble on expression in E. coli” value is reported as “soluble”. With “MGSDKIHHHHHHMSNHSSSIPELSDNGIRYYQTYNESLSLWPVRCKSFYISTRFGQTHVIASGPEDAPPLVLLHGALFSSTMWYPNIADWSSKYRTYAVDIIGDKNKSIPENVSGTRTDYANWLLDVFDNLGIEKSHMIGLSLGGLHTMNFLLRMPERVKSAAILSPAETFLPFHHDFYKYALGLTASNGVETFLNWMMNDQNVLHPIFVKQFKAGVMWQDGSRNPNPNADGFPYVFTDEELRSARVPILLLLGEHEVIYDPHSALHRASSFVPDIEAEVIKNAGHVLSMEQPTYVNERVMRFFNA” the “soluble on expression in E. coli” value was “soluble”. For “MSRAASLRAELTSLANAFEEERISSAERLDADLVRQAVEQAKPENLEQWKQVVHDATAKLQQFWEDSEQALIRETYALATSYLRESDDEVHRLQMTKKALEEQLETERRRSTRIEEQLAALQSRLLDSAAPAATTPADDARTQQEVLRSELQGFMQELVRNQRESLRVLQEELQRVREEASVREENLLRQIAHLKTELAVARTDNEVSSRQLRQLETSAGREEVQDELGPGTIWPPHLTPRRGHRRFQRHNRLEDAPAPPEF”, the “soluble on expression in E. coli” value was “not soluble”. With “MGSDKIHHHHHHMIVERVEEYLDRIEKINKDINALIEVKPEKVLEEAKKLEKDEKAKKKPLYGKIIVVKANINVEGYTISCASKTLENYIAPYDATVIEKIKENGGLIIGIANMDEFACGSSGETSYFGPTKNPRAKDRIPGGSSSGSAAAVSADLCDMALGSDTGGSIRNPASHCGVVGFKPSYGVVSRYGLCDLAMSFDQIGPLTKTAEDALLLTNIIKGKDLRDTTTVETKPFEKKDIKGFKVGVVKEFMDVADEKIRDKVEKAIEVFKDLGCEIVELSYKYVDLALPTYYLINYVEFFSSTRRYDGRRYGYKIEEVCGEEVLRRIMIGSMISQKEYSGKYYKNALKARNLMRNEMIKIMKDVDIIVGATVPKLPHKLGEKLTPMEMYSYDVLTVPANICGLCAGVVPCGDINGIPVGLQIQGKPFEDEKVLSAMIAFEKAME” the “soluble on expression in E. coli” value was “not soluble”. For “MQNIHKIKQDMCDIGRRIYNRQFAAANDGNITVRVSENEVLCTPTMHCKGYLTPDDISMIDMTGKQIAGRKKRSSEALLHLEIYKQRADIKSVVHCHPPHATAFAIAREPIPQCILPEVEVFLGDVPITKYETPGGQAFADTIIPFVEKTNVMILANHGTVSYGESVERAYWWTEILDSYCRMLLLAKQLGNVSYLDETKSRELLELKDKWGFKDPRNTSEYEDCDICANDIFRDSWKDSGVERRAFAPPPPIKTSGSASSAPAGVDEEQLVKLITNEVMRQMKASS”, the “soluble on expression in E. coli” value was “not soluble”. In the case of “MAKVIFQDNFLLMGTNYHEKEANKVMAEIGKKSPYWDKDKDFISDYIKSNFKDIYKYYRVSTKDVEIVREPLNRHDPNAIKVMVNKTFVGYFPADLAKRLTPYVKKSSHYQMEATLTGRGGQYKTLKNDLKTVVTKKKDITYKLRLTILKVDRVSKSKNAGLLESIASWFLNLEHHHHHH”, the “soluble on expression in E. coli” value is reported as “soluble”. For “MGSDKIHHHHHHMAAVDLEKLRASGAGKAIGVLTSGGDAQGMNAAVRAVTRMGIYVGAKVFLIYEGYEGLVEGGENIKQANWLSVSNIIQLGGTIIGSARCKAFTTREGRRAAAYNLVQHGITNLCVIGGDGSLTGANIFRSEWGSLLEELVAEGKISETTARTYSHLNIAGLVGSIDNDFCGTDMTIGTDSALHRIMEVIDAITTTAQSHQRTFVLEVMGRHCGYLALVSALASGADWLFIPEAPPEDGWENFMCERLGETRSRGSRLNIIIIAEGAIDRNGKPISSSYVKDLVVQRLGFDTRVTVLGHVQRGGTPSAFDRILSSKMGMEAVMALLEATPDTPACVVTLSGNQSVRLPLMECVQMTKEVQKAMDDKRFDEATQLRGGSFENNWNIYKLLAHQKPPKEKSNFSLAILNVGAPAAGMNAAVRSAVRTGISHGHTVYVVHDGFEGLAKGQVQEVGWHDVAGWLGRGGSMLGTKRTLPKGQLESIVENIRIYGIHALLVVGGFEAYEGVLQLVEARGRYEELCIVMCVIPATISNNVPGTDFSLGSDTAVNAAMESCDRIKQSASGTKRRVFIVETMGGYCGYLATVTGIAVGADAAYVFEDPFNIHDLKVNVEHMTEKMKTDIQRGLVLRNEKCHDYYTTEFLYNLYSSEGKGVFDCRTNVLGHLQQGGAPTPFDRNYGTKLGVKAMLWLSEKLREVYRKGRVFANAPDSACVIGLKKKAVAFSPVTELKKDTDFEHRMPREQWWLSLRLMLKMLAQYRISMAAYVSGELEHVTRRTLSMDKGF”, the “soluble on expression in E. coli” value was “not soluble”. For “MGSDKIHHHHHHMKKLTVYLATTNPHKVEEIKMIAPEWMEILPSPEKIEVVEDGETFLENSVKKAVVYGKKLKHPVMADDSGLVIYSLGGFPGVMSARFMEEHSYKEKMRTILKMLEGKDRRAAFVCSATFFDPVENTLISVEDRVEGRIANEIRGTGGFGYDPFFIPDGYDKTFGEIPHLKEKISHRSKAFRKLFSVLEKILESENR”, the “soluble on expression in E. coli” value was “soluble”. In the case of “MSLYISSALGPVDSGNKKEIEVEIPKGSSTSKIGEILEEKGAVKSGTVFSFYTKAKSKNLQAGTYLLNPSMSAKDVMEQMSSGNVHRPALYKVTIKEGAQVTEIAETVANELKWNKDDVVRQLNDKAFIQKMQQKYPKLLTDKIFDSNIKYPLEGYLYPATYSFYKKDTTLEEVVIPMLEKTNAIIVQNEAKMKAKNWDVHQLLTLSSLIEEEATGFTDRQKISSVFYNRLAKGMPLQTDPTVLYALGKHKQRVLYEDLKVNSPYNTYVVKGLPVGPIANSGKHSVEAALEPTQTDYYYFLAAPTGEVYYAKTLEEHNALKQKYITKKQEGHHHHHH”, the “soluble on expression in E. coli” value is reported as “soluble”. In the case of “MMGTAWPPPELADVFAQQDIWSAWYAGTPEGLTDAYLNAPNDRPAARRKGLLARLGRWFWGQPTPMGERPSKLHVPLAGAIAAVSANLLFGAPLNLTVDDAATQERLDQLADDTTYAVLREAAEMSAALGGVYLRVVWDQSIQDKPWLVAASPDIAVPEWKWGRLSAVTFWNVIREDANTVVRQLERHEPGWIRHSVWIGSANELGVQMALTDFPETAGLADLVIDGDGIPTGTPKLTAQYIPNLKPNKLWRHLPAAANLGRSDFSGVEALMDALDEAYSDWMRDLRTGKARLLVGTEVLENLGKGQGAHFDIDRELFAPLNLEPGEDKGSVIEQVQFNIRTEEHRALCADLAERIILGAGYSLQTFGVTSEGSGNPTATEIAARERQSLTTRANKTSYWRPALAHLFGVLLEIDRTVFRSQVVPQIPDVEFPDVVTPDPGETARQLNDLNTAGAISTYEKVRRLNPDWRDEQVLEEVARIKADQAEAKPQPTHPARAQEPAGQPEKSPEGSQVNEDVSEPLVAR”, the “soluble on expression in E. coli” value is reported as “not soluble”. With “MTASKIPIKKVCEHCKQEFIALKTTTKYCSHRCNSRAYKAQKREERVRRTELSEQEKKVSDIIDKPYLSISEAGRLLGISRHTIYRYIYSGNLKAYNLSSQRSIVKREDIERMLAERPYEKRQPRDAIVITELYTTDEVCDIHNISRSSLFAIAKRENIPRTYNRGKTYWSKRHIDAYFAKQAPASHIEEWCTAVEIQERFDMTLTAVYNFISDHNIPRKKVKGKSYYSTKHVEAAKGVLDKAAPSYYTVREAMEKFGLTRDQLYQYTKRYNVPKLKQGRNVLISQQELDEVLKPPSITR” the “soluble on expression in E. coli” value was “not soluble”. With “MGSSHHHHHHSSGLVPRGSHMDFYKLDEKLKELKRKRVDVSIKSRKLADREIQEVSANRKPRVYSMEDVNDADESVGDTESPEKEKAFHYTVQEYDAWERRHPQGKTGQSQRGGISYDQLAKLSYEKTLRNLATQTQNSSKQDSSADEEDNKNVPKKGRIGKVQKDTKTGKITIADDDKLVNKLAVSLQSESKKRYEARKRQMQNAKTLYGVESFINDKNKQFNEKLSRESKGSE” the “soluble on expression in E. coli” value was “soluble”. With “MSLSFQMKYDIRLRFEVEGIVEKTDVIGAIFGQTENLFGDEFDLRELQDKGRLGRIIVEVKTKGGKSEGEIIIPSNLDRIETALIAAMVESVDKVGPYNSKFELIEIEDIRAEKLKKIIERAKGILSSWSKEKSLDIKEVINEISSAVKVGEITEYGPERLPAGPDVDKDPNLIIVEGRADVINLLRYGYKNVIAVEGATSRIPETLINLSKMKKTVIAFLDGDHGGDLILKELLSNNVKIDFVARAPIGREVEELTGKEIAKALSNMMPLTQYLKKVQEAEQAIAKNVIAKEEKPIQSETTQQVVQITLPQNILEEIKKLPGTLEGVLYDNNWNLIEKVQVRDIIPKLEAYEDNKVAYIIFDGVITQRLLDLASQKNIKMIIGARIGGINKRPQNVDILTFTDIISSEGHHHHHH” the “soluble on expression in E. coli” value was “soluble”. With “MAHQYPSWIFINEKTFITREQLNSLLKTYNIFYENQKNLHILYGETEDGKLIVEGMLDIFWGVKRPIQLKIQDEKPFSSFTSMKSSDVFSSKGMTRWGEFDDLYRISELDRTQIPMSEKRNSQEDYLPYHSNTLKPHAKDEPDSPVLYRTMSEAALVRKRMKPLMMDRKERQKNRASINGHFYNHEIENSPQDFALHIIFATGEQRRLKKTDIPLLQRLLQGPSEKNARIFLMDKDAEEISSDVAQYINFHFSLLESILQRLNEEEKREIQRIVTKFNKEKAIILKCLQNKLVIKTETTV” the “soluble on expression in E. coli” value was “not soluble”.
